Experiment [1] has as its target T1, HlgB, F-component of gamma-hemolysin, USA300 TCH1516 strain (Staphylococcus aureus USA300 TCH1516, UniProt P0A075 26-325).
T1 sequence: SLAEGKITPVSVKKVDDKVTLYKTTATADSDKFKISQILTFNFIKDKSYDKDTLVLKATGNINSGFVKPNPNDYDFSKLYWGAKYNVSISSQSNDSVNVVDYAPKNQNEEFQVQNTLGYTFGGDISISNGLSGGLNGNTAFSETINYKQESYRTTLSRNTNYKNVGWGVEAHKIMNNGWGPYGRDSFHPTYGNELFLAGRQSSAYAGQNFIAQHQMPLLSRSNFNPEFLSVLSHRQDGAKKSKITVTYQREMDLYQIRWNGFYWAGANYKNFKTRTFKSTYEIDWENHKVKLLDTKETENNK
Briefly: MSD solution equilibrium, Fab with biotinylated antigen (or ForteBio). Background: In BLI a coated tip is dipped into the sample, and binding shifts an interference pattern.

Experiment [2] deals with T2, LukF, F-component of Panton Valentine leukocidin (LukSF), USA300 TCH1516 strain (Staphylococcus aureus USA300 TCH1516).
T2 chain: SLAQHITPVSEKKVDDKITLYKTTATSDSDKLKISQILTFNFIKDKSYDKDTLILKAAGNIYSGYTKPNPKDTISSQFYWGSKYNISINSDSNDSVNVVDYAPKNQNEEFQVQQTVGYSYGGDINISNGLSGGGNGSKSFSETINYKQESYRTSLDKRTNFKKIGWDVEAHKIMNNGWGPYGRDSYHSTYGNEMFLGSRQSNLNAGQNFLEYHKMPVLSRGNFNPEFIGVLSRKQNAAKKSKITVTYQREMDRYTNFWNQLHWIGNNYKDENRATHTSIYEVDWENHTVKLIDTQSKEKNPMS
The experiment is described as above.

Experiment [3] concerns the target T3, LukD, F-component of LukED, USA300 TCH1516 strain (Staphylococcus aureus USA300 TCH1516, UniProt Q2FXB1 27-327).
T3 sequence: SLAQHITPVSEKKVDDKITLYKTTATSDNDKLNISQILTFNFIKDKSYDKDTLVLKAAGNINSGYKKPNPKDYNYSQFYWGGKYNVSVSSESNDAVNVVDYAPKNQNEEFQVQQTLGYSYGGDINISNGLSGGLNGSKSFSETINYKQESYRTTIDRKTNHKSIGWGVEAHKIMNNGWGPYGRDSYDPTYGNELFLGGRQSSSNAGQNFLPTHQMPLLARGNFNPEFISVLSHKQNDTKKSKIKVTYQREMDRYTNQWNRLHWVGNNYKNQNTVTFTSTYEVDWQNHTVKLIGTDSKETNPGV
The description is as above.

Experiment [4] has as its target T2, LukF, F-component of Panton Valentine …. The experiment can be described thus: MSD solution equilibrium, Fab with biotinylated antigen.
The target in experiment [5] is T3, LukD, F-component of LukED, USA300 …. The description is as above.
Experiment [6] has as its target T1, HlgB, F-component of gamma-hemolysin, …. The experiment is described as above.

Positions count from the first letter of the chain named.

Our source for the Kd values is patent US20160244511A1 (published 2016).

B1: AB-28 Fab fragment (Fab, V domains shown)
VH: QVQLQESGPGLVKPSETLSLTCAVSGYSISSGMGWGWIRQPPGKGLEWIGSIDQRGSTYYNPSLKSRVTISVDTSKNQFSLKLSSVTAADTAVYYCARDAGHGVDMDVWGKGTTVTVSS
VL: DIQMTQSPSSVSASVGDRVTITCRASQGISRWLAWYQQKPGKAPKLLIYAASSLQSGVPSRFSGSGSGTDFTLTISSLQPEDFATYYCQQGYVFPLTFGGGTKVEIK
In the case of B1, the dissociation constant Kd (in general, the concentration at which binding is half-saturated) is less than 0.01 nM in experiment [1], greater than 0.1 nM in experiment [2] and greater than 1 nM in experiment [3].

B2: AB-28-9 Fab (Fab, V domains shown)
VH: B1 VH with Q1E, K13R, G103A
VL: B1 VL
On to B2, for which the figures for the Kd in experiment [4] and in experiment [5] were less than 0.055 nM and less than 0.8 nM, respectively.

B3: AB-28-7 Fab (Fab, V domains shown)
VH: B1 VH with G36D, L46R, K65E, S66G, V68A
VL: B1 VL
As for B3, the Kd is less than 0.055 nM in experiment [4] and less than 0.8 nM in experiment [5].

B4: AB-28-6 Fab (Fab, V domains shown)
VH: B1 VH with K13R, G103A
VL: B1 VL
With B4, the results for the dissociation constant (Kd) in experiment [4] and in experiment [5] were less than 0.055 nM and less than 0.8 nM, respectively.

B5: AB-28-3 Fab (Fab, V domains shown)
VH: B1 VH with I52V, V104A
VL: B1 VL
B5 registered a Kd in experiment [6] of less than 0.02 nM.

B6: AB-28-8 Fab (Fab, V domains shown)
VH: B1 VH with G36D, S63P, K65E
VL: B1 VL
In the case of B6, the figures for the Kd in experiment [4] and in experiment [5] were less than 0.055 nM and less than 0.8 nM, respectively.
